Source: PMC5173319, “Crenactin forms actin-like double helical filaments regulated by arcadin-2” (eLife, 2016)

Key:
[1] = molecular target: Pyrobaculum calidifontis arcadin-1 (Pyrobaculum calidifontis); assay: AUC; sedimentation equilibrium, arcadin-1 at 49.8, 99.5 and 199 µM, 7800, 11800 and 15,000 rpm, 20°C, 25 mM Tris-HCl pH 8.0, 100 mM NaCl, 1 mM EDTA; idealised single-species model
[2] = molecular target: Pyrobaculum calidifontis crenactin (Pyrobaculum calidifontis) (UniProt A3MWN5); assay: SPR; crenactin immobilised by amide coupling on CM5 chip (~2300 RU), Biacore T200, PBS-0.005% Tween 20, 20°C; arcadin-1 in 1:3 dilution series from 36.7 µM; equilibrium response fitted to a single site model
Pyrobaculum calidifontis crenactin (Pyrobaculum calidifontis), sequence (A3MWN5 whole entry): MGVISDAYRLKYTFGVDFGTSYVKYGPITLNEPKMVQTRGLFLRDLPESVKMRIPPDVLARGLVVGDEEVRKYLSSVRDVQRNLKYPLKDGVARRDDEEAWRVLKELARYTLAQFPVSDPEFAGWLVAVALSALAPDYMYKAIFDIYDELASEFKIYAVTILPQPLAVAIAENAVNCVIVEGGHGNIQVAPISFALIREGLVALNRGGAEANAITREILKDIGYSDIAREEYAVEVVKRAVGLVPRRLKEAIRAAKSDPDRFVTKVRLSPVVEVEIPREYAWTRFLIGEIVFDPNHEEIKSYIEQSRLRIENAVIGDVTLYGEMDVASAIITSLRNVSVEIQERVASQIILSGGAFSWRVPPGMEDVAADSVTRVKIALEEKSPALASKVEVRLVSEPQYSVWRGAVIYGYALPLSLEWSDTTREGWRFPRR

Substance: Pyrobaculum calidifontis arcadin-1 (natural protein)
- stoichiometry N [1]: 8
- Kd [2]: 15 µM
